Laboratory results as given in the supplement of paper PMC9170038.

Tested on: MS2 coat protein
Experiment: apparent KD of MS2 coat protein; higher = weaker reporter binding
Details: Eterna round: R107
In short: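 Titrations with SNAP-549-labelled MS2 coat protein ran in twofold steps from 0.7 or 1.5 nM to 3 µM, each step taking 0.8–1.5 h at the start and 10–20 min toward the end. The targets were designed RNA switches transcribed on-chip from Illumina sequencing clusters, held in 100 mM Tris-HCl pH 7.5, 80 mM KCl, 4 mM MgCl2, without or with constant ligand. Apparent KD was taken per design as the median of normalised cluster binding-curve fits.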

[1] = input ligand: theophylline 20 uM
[2] = input ligand: theophylline 2 mM
[3] = input ligand: tryptophan 2.4 mM

Sequence | apparent KD of MS2 coat protein (input ligand: arginine 13.2 mM) | apparent KD of MS2 coat protein [1] | apparent KD of MS2 coat protein [2] | apparent KD of MS2 coat protein (input ligand: none) | apparent KD of MS2 coat protein [3]
GGGAGGGAGGCGGCCGCCACUGAUUUUCAUAUAUAUAUAACAUGAGGAUCACCCAUGUAGAUAUGCAGGACCGGGCCUUUUUUUU [aaaI] | 21.3 nM | 30.1 nM | 19.1 nM |  | 
GGGAUAUAGGCGGCCGCCACUGAUUUUCAUAUAUAUAUAACAUGAGGAUCACCCAUGUAGAUAUACAGGACCGGGCCUAUAUUUU [aaaD] | 14.8 nM | 17.4 nM | 21.1 nM | 15.2 nM | 13.5 nM
GGGCAAGAGGGAAGGAGCGUCAGCUGAGUCACAUGAGGAUCACCCAUGUAGCACAUAGUGUGACAGGUAGGUCGCCCUCUGCCCU [SS-ArgB5] | 11.1 nM | 14.4 nM | 11.4 nM | 9.19 nM | 11.6 nM
GGGCGCUAUCCCGCGAGGGAUAGCGUUCGACGAGGACCGGUACGGCCGCCACUCGAACGAGUGGGUACAUGAGGAUCACCCAUGU [Gaa] | 26.3 nM | 50.9 nM | 33.3 nM | 33.5 nM | 25.9 nM
GGGCGCUAUCCCGCGAGGGAUAGCGUUCGGCGAGGACCGGUACGGCCGCCACUCGAACGAGUGGGUACAUGAGGAUCACCCAUGU [Faa] | 23.1 nM | 39.6 nM | 36.3 nM | 28 nM | 30.6 nM
GGGUACAUCGCGGCCGCCACUCAUGUAAAUGCAUGAGGAUCACCCAUGCCGAUGGAGACAUCGGAGAGGACCGGGUGAUGUACCG | 41.8 nM | 68.7 nM | 71.1 nM | 45.8 nM | 33.6 nM
GGGUCAGGCGCGGCCGCCACUGCGGUGAUGUGACAUGAGGAUCACCCAUGUUGUCAUGUGGCACAUAGGACCGGGCGCCUGGCCC [#1 Exclusion - Tryptophan B Attempt #7 (HarryS)] | 25.4 nM | 41.5 nM | 33.2 nM |  | 
GGGUGGUAGGCGGCCGCCACUGAUUUUUAUUUAUAGAUGACAUGAGGAUCACCCAUGUAGAUAUGCAGGACCGGGCCUGUUGUUU [aaaO] | 16.6 nM | 22.3 nM | 19.3 nM |  | 
GGUCUCUGGAGCGAUACCAGCUUAAGUGUACUGGCCAGGUACAUGAGGAUCACCCAUGUAAGCCCUUGGCAGCGCUCCAGAGACC [#1 Exclusion - Theophylline B Attempt #14 (HarryS)] | 16.7 nM | 16.1 nM | 41.5 nM | 10.4 nM | 12.2 nM
GGUCUCUGGAGCGAUACCAGCUUGAGUGUACUGGCCAGGUACAUGAGGAUCACCCAUGUAAGCCCUUGGCAGCGCUCCAGAGACC [#1 Exclusion - Theophylline B Attempt #15 (HarryS)] | 9.19 nM | 14 nM | 44.7 nM | 9.21 nM | 11 nM
